Molecular target: Recombinant Flag-tagged human PRMT5 (Homo sapiens (Human), UniProt O14744)
Test: anti-Flag pulldown with immunoblot

Recombinant Flag-tagged human PRMT5, sequence (O14744 whole entry): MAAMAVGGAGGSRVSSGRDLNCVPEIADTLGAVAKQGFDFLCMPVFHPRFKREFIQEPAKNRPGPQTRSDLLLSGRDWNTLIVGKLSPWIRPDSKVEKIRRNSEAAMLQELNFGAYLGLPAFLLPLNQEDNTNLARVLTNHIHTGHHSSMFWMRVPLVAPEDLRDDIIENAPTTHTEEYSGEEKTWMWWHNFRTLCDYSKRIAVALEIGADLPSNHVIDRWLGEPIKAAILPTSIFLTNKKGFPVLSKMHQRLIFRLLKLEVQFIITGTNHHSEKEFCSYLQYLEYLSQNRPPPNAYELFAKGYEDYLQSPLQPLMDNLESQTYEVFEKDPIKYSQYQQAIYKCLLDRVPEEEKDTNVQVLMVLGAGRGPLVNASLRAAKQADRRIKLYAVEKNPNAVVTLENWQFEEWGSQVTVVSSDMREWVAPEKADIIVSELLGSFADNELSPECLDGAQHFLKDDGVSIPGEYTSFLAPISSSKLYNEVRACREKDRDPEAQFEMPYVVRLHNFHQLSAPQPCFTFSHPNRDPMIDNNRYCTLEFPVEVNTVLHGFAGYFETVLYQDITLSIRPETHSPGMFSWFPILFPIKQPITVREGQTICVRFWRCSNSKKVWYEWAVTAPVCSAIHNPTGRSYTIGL

B1: Recombinant Xenopus laevis MEP50 alone (protein)
chain: MSKGSAWGRPVTAPACMEVQIGAVRYRRDGALLLAASSLSSRTWGGSIWVFKDPEGAPNESLCTAGVQTEAGVTDVAWVSEKGILVASDSGAVELWEILEKESLLVNKFAKYEHDDIVKTLSVFSDGTQAVSGGKDFSVKVWDLSQKAVLKSYNAHSSEVNCVAACPGKDTIFLSCGEDGRILLWDTRKPKPATRIDFCASDTIPTSVTWHPEKDDTFACGDETGNVSLVNIKNPDSAQTSAVHSQNITGLAYSYHSSPFLASISEDCTVAVLDADFSEVFRDLSHRDFVTGVAWSPLDHSKFTTVGWDHKVLHHHLPSEGRTENLIATKAED
- binding result: binds
